Data on twelve molecules can be found in patent USRE50618E1, “Anionic-core composition for delivery of therapeutic agents, and methods of making and using the same” (PharmaIN Corporation, priority 2009, dated 2025).

Values joined by “and” are separate entries in the source; they are usually repeats but may differ in a detail not shown here. Equal entries are not always repeated. Where two headings read alike, the source gives them in different places.

Series [1] concerns bacteria. The following applies: cited from earlier work.
For series [2], the system named is adenoviral infection. Conditions: cited from earlier work.
The conditions of series [3]: cited from earlier work; for isoelectric point (pI): stated in the description; for Isoelectric Point: peptide or protein load molecule, Table 7.
For series [4] the following is noted: rat, in vivo, 10 mg/kg.
A short description of series [5]: Lysostaphin PK study (serum lysostaphin activity assay). The following applies: Sprague Dawley rats, i.v. bolus 12 mg lysostaphin/Kg; lysostaphin 50% of carrier weight. In kind it is in vivo. The protocol: Four carriers were selected for PK study. CSPEG106G, HPPEG105G, 20PLPEG1030-DTPA, and 20PLPEG1030-DTPA-SO were loaded with Lysostaphin equivalent to 50% of the carrier weight. These formulations were obtained by dissolving together an appropriate amount of carrier and Lysostaphin in water and incubating for two hours followed by lyophilization. Each lyophilized formulation (including unformulated lysostaphin alone) was dissolved in saline and administered to Sprague Dawley rats (n=4) by slow (at least 1 min) i.v. bolus (12 mg lysostaphin/Kg) via the lateral tail vein. Blood samples were taken from the orbital sinus at 5 m, 15 m, 30 m, 60 m, 120 m, 4 h, 6 h, 24 h, 32 h (30 h), and 48 h and placed in tubes containing Protease Inhibitors (AEBSF, Aprotinin, E-64, EDTA, and Leupeptin). Sera were obtained by centrifugation at 13,000 rpm. All the sera were stored at −80° C. until used in the assay. 100 of serum was used in this assay for each time point. Lysostaphin's activity was measured by activity assay as follow: Stock buffer (10×) was prepared to contain 1M MOPS/10% Tween (by wt.)/5 mM EDTA/pH 7.3. The final reaction mixtures (2000) in black 96-well plate were prepared to contain 5 μg substrate, 100 mM MOPS, 1% Tween20, 0.5 mM EDTA, pH 7.3, and 100 of serum samples. The samples were added last and after addition the wells were mixed and bubbles in the solution was removed using pipette tip wet with ethanol. Fluorescence (Ex485 nm/Em535 nm) increase was monitored for two hours using Chameleon 96-well microplate fluorometer (Bioscan) every 7.5 minutes for 2 hours. The substrate gave fluorescence product when lysostaphin proteolytically cleaved it.

“(klaklak)2: synthetic 14 amino acid D-peptide, programmed cell death-inducing sequence (KLAKLAKKLAKLAK; D-amino acids, C-terminal amide)”: the “concentration that kills bacteria relative to that required to kill eukaryotic cells” value in series [1] was 1%.

On to “ACYCRIPACI-AGERRYGTCI-YQGRLWAFCC [HNP-1]”, for which, in series [2], the “reduction of adenoviral infection” value was “more than 95%”.

On to Fibroblast growth factor, for which the “isoelectric point (pI)” value in series [3] was 8.0-9.0 and 9.6.

In the case of “GLP1: peptide load molecule with isoelectric point 5.4 used in Table 7”, the “Isoelectric Point” value in series [3] is 5.4.

In series [4], “H-RRRPRPPYLPRPRPPPFFPPRLPPRIPPGFPPRFPPRFP-OH [PR39]” came in with a level at 24 h of 370 ng/mL and a level at 48 h of 30 ng/mL. Besides, the “Isoelectric Point” value in series [3] was 9.96.

Regarding “Heparin-binding EGF: EGF-related growth factor that signals through the EGF receptor and binds heparin”, the “Isoelectric Point” value in series [3] is listed as 8.56.

“Lysostaphin: 25-kDa peptidase produced by Staphylococcus simulans, cleaves glycine-glycine bond of Staphylococcus aureus cell wall cross-bridge”: in series [5], the AUC0 to last is reported as 64.2 hr (μg/ml), the “AUC0 to ∞” value is recorded as 67 hr (μg/ml), the C0 worked out at 301000 ng/mL and the Mean residence time was 0.984 h. Besides, the “Terminal t1/2” value in series [5] came to 1.53 h. Also, in series [3], the “Isoelectric Point” value is reported as 9.56 and the “isoelectric point (pI)” value is reported as 9-10. Moreover, in series [3] (listed as lysostaphin), the “isoelectric point (pI)” value is 9.56.

For the molecule “Nerve growth factor: growth factor listed as basic protein load molecule”, in series [3], the “isoelectric point (pI)” value is given as 8.5-9.5.

As to Vascular endothelial growth factor, the “isoelectric point (pI)” value in series [3] is on record as 8.0-9.5.

For “erythropoietin without sialic acid: erythropoietin without sialic acid, listed as load molecule”, the “isoelectric point (pI)” value in series [3] is given as 8.5.

Turning to platelet derived growth factor, the “isoelectric point (pI)” value in series [3] was 8.5-10.

B1: Interferon gamma: type II interferon with anti-viral and anti-scarring activity (protein, UniProt P01579 24-161, looked up)
Interferon gamma: QDPYVKEAENLKKYFNAGHSDVADNGTLFLGILKNWKEESDRKIMQSQIVSFYFKLFKNFKDDQSIQKSVETIKEDMNVKFFNSNKKKRDDFEKLTNYSVTDLNVQRKAIHELIQVMAELSPAAKTGKRKRSQMLFRG
With B1, the “isoelectric point (pI)” value in series [3] is reported as 8.5-9.5.
